For 1 substance, stoichiometry N results are on record in publication doi:10.1101/2021.05.25.445634.

The assay has as its target TnsC of the type V-K CRISPR-associated transposase system from S. hofmanni (ShCAST) (S. hofmanni). Nature of the assay: cryo-EM structure.

Broadly, the stoichiometry N is the number of molecules, sites or subunits per partner or assembly. “TnsC of the type V-K CRISPR-associated transposase system from S. hofmanni (ShCAST) (natural protein)” displayed a stoichiometry N of 12 subunits.
